In assay [1] the target is T1, soluble dimeric erythropoietin receptor (EpoRFc) (human, UniProt P19235 25-250).
T1 construct: also called Epo-Rec-Fc; not shown: Fc part
T1 sequence (looked up): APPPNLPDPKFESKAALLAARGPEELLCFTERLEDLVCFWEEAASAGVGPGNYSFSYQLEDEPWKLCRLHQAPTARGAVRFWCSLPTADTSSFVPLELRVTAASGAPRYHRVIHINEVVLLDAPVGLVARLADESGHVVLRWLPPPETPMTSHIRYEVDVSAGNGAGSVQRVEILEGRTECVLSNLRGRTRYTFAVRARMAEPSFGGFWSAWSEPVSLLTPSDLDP
Kind of assay: BIAcore, mAb captured on rabbit anti-mouse Fc surface, EpoRFc injected at 0.25-6 ug/ml; soluble dimeric EpoRFc. The method, then: (§1) EpoR or EpoRFc diluted in HBS buffer at 0.25–6 ug/ml was then injected for 120 s followed by buffer flow for 240 s and regeneration of the sensor chip surface with an injection of 15 ul 0.1 M phosphoric acid. BIAcore software was used for association and dissociation-phase analysis.
In general terms: SPR reads the build-up and loss of mass on a sensor chip optically.

The target of assay [2] is T1, soluble dimeric erythropoietin receptor …. Briefly: BIAcore, calculated from kass and kdiss; soluble dimeric EpoRFc. The method, then:
as §1

Assay [3] concerns the target T2, human erythropoietin receptor on the cell surface (human, UniProt P19235 25-508).
T2 construct: whole, on cells; also called wild type EpoR on UT7-Epo cells; cell surface erythropoietin receptors
T2 sequence (looked up): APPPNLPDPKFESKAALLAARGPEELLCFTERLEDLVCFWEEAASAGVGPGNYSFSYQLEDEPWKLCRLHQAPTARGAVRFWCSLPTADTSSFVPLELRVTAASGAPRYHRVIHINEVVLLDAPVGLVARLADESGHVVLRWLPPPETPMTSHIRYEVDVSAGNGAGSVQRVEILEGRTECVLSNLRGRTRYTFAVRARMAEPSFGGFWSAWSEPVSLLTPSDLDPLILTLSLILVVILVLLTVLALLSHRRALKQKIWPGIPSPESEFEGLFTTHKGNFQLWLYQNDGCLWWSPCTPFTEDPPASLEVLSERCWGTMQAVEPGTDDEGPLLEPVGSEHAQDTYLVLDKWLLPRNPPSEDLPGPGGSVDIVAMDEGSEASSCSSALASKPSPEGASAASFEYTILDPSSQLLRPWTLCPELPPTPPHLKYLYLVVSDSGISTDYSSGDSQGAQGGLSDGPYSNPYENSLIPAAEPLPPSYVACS
Briefly: competition with 1 nM 125I-labeled Epo for binding to UT7-Epo cells, 5 hrs at 4 C, cell-bound radioactivity counted; blocked ligand: Epo. How it is done:
Following 5 hrs incubation at 4° C., the cells were spun through horse serum, frozen, and the pellets clipped off and radioactivity counted. […] Hematocrit was measured following a single i.v. dose of Hz3G9 at 0.1, 0.5, 1 and 5 mg/kg into cynomolgus macaques.

B1: murine monoclonal antibody 3G9 (antibody, V domains shown)
VH: QVQLQQPGAELVKSGASVKLSCKASGSTFTSYWMHWVKQRPGRGLEWIGRIDPNSGGTKDNEKFKSKATLTVDKPSSTAYMQLSSLTSEDSAVYYCARETYYDSSFAYWGQGTLVTVSA
VL: DIVMTQSQKFMSTSVGDRVSVTCKASQNVGTNVAWYQQKPGQSPKALIYSASYRYSGVPDRFTGSGSGTDFTLTISNVQSEDLAEYFCQQYNSYPLTFGAGTKLELKR
modifications: amino terminus of the heavy chain blocked with pyroglutamic acid
notes: Mouse hybridoma antibody; also called 3G9 mAb; Mab 3G9
As a reminder, the koff is the rate constant with which the complex falls apart. A high value points to a short-lived complex. One may read the kon as a measure of how fast the partners come together. A higher kon goes with faster complex formation. What is called Kd is the constant that tells how readily two partners part at equilibrium. In assay [1], B1 displayed an off-rate (koff) of 0.0019 s⁻¹ and an on-rate constant (kon) of 3e+06 M⁻¹ s⁻¹. In addition, the Kd in assay [2] is 0.6 nM. Further, the “IC50 (read off the curve)” value in assay [3] was approximately 1 ng/mL.

These data come from patent US6998124 (GlaxoSmithKline, dated 2006).
